What was measured:
porcine albumin = porcine albumin (Sus scrofa, UniProt P08835); assay: Binding to porcine albumin, in vitro assay; conditions: relative to the reference compound EXA
Method: The binding to porcine albumin was determined in an in vitro assay. The values given in Table 1 under the heading “Albumin binding” are relative to the reference compound EXA.

[1] = pH 7.3
Method: The lipophilicity of the insulin derivatives relative to human insulin, k″rel, was measured on a LiChrosorb RP18 (5 μm, 250×4 mm) HPLC column by isocratic elution at 40° C. using mixtures of A) 0.1 M sodium phosphate buffer, pH 7.3, containing 10% acetonitrile, and B) 50% acetonitrile in water as eluents. The elution was monitored by following the UV absorption of the eluate at 214 nm. Void time, t0, was found by injecting 0.1 mM sodium nitrate. Retention time for human insulin, thuman, was adjusted to at least 2t0 by varying the ratio between the A and B solutions. k′rel=(tderivative−t0)/(thuman−t0).

[2] = pig, in vivo, sc
Text: Determination of Disappearance Half-life, T50%, from the Injection Site after Subcutaneous Injection of an Insulin Derivative in Pigs.

Chain of porcine albumin (P08835 25-607): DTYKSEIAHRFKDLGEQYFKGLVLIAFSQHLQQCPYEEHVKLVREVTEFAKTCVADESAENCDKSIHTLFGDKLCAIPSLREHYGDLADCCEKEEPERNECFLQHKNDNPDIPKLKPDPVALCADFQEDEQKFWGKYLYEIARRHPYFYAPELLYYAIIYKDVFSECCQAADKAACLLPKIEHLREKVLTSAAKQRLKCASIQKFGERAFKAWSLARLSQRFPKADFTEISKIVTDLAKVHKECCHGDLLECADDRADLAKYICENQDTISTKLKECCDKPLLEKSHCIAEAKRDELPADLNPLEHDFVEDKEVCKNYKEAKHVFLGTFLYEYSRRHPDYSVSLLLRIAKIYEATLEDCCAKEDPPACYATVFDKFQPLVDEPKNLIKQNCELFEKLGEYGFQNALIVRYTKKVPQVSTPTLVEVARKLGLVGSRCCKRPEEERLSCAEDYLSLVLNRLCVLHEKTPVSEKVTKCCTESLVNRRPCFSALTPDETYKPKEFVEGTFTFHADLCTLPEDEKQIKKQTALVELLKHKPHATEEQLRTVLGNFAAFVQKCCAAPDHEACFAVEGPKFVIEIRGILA

Albumin binding (porcine albumin)	Substance	Lipophilicity [1]	T50% [2]
5	N^εB29-(CO—(CH2)14—COOH) des(B30) Human Insulin [EX2]	2.3	10 h
36	N^εB29-(CO—(CH2)16—COOH) des(B30) Human Insulin [EX4]	7.2	17.1 h
51	N^εB29-(CO—(CH2)18—COOH) des(B30) Human Insulin [EX3]	17	18 h
0.7	N^εB29-(CO—(CH)12—COOH) des(B30) human insulin [EX1]	1.4	5 h
0.9	N^εB29-hexadecanoyl desB30 insulin [EXB, reference compound]	346	12 h
1	N^εB29-tetradecanoyl desB30 insulin [EXA, reference compound]	113	14 h

From patent US6451970B1, “Peptide derivatives” (Novo Nordisk A/S, priority 1996, dated 2002)
